Results as given in patent publication US20140294898A1 (published 2014).
Positions of bridges follow the written chain, without caps; N, C: chain ends. Non-standard residues stand in square brackets, D forms with d. Phe(4-CF3) = N[C@@H](Cc1ccc(C(F)(F)F)cc1)C(=O)O; Phe(4-tBu) = CC(C)(C)c1ccc(C[C@H](N)C(=O)O)cc1; Bip = N[C@@H](Cc1ccc(-c2ccccc2)cc1)C(=O)O; Phe(4-Br) = N[C@@H](Cc1ccc(Br)cc1)C(=O)O; 1Nal = N[C@@H](Cc1cccc2ccccc12)C(=O)O; 2Nal = N[C@@H](Cc1ccc2ccccc2c1)C(=O)O; 3Pal = N[C@@H](Cc1cccnc1)C(=O)O; NMeNle = CCCC[C@H](NC)C(=O)O; NMeV = CN[C@H](C(=O)O)C(C)C; NMeA = CN[C@@H](C)C(=O)O; Sar = CNCC(=O)O

B1: Compound No. 24 (peptide)
peptide: {CH2CO}-F[NMeA]NPHL[Sar]WSW[NMeNle][NMeNle]RC-NH2
modifications: thioether N-14
SMILES: CCCC[C@H]1C(=O)N(C)[C@@H](CCCC)C(=O)N[C@@H](CCCNC(=N)N)C(=O)N[C@H](C(N)=O)CSCC(=O)N[C@@H](Cc2ccccc2)C(=O)N(C)[C@@H](C)C(=O)N[C@@H](CC(N)=O)C(=O)N2CCC[C@H]2C(=O)N[C@@H](Cc2c[nH]cn2)C(=O)N[C@@H](CC(C)C)C(=O)N(C)CC(=O)N[C@@H](Cc2c[nH]c3ccccc23)C(=O)N[C@@H](CO)C(=O)N[C@@H](Cc2c[nH]c3ccccc23)C(=O)N1C
B2: Compound No. 28 (peptide)
peptide: {CH2CO}-[Bip][NMeA]NPHL[Sar]WSW[NMeNle][NMeNle]RCG-NH2
modifications: thioether N-14
SMILES: CCCC[C@H]1C(=O)N(C)[C@@H](CCCC)C(=O)N[C@@H](CCCNC(=N)N)C(=O)N[C@H](C(=O)NCC(N)=O)CSCC(=O)N[C@@H](Cc2ccc(-c3ccccc3)cc2)C(=O)N(C)[C@@H](C)C(=O)N[C@@H](CC(N)=O)C(=O)N2CCC[C@H]2C(=O)N[C@@H](Cc2c[nH]cn2)C(=O)N[C@@H](CC(C)C)C(=O)N(C)CC(=O)N[C@@H](Cc2c[nH]c3ccccc23)C(=O)N[C@@H](CO)C(=O)N[C@@H](Cc2c[nH]c3ccccc23)C(=O)N1C
B3: Compound No. 41 (peptide)
peptide: {CH2CO}-F[NMeV]NPHL[Sar]WSW[NMeNle][NMeNle]RCG-NH2
modifications: thioether N-14
SMILES: CCCC[C@H]1C(=O)N(C)[C@@H](CCCC)C(=O)N[C@@H](CCCNC(=N)N)C(=O)N[C@H](C(=O)NCC(N)=O)CSCC(=O)N[C@@H](Cc2ccccc2)C(=O)N(C)[C@@H](C(C)C)C(=O)N[C@@H](CC(N)=O)C(=O)N2CCC[C@H]2C(=O)N[C@@H](Cc2c[nH]cn2)C(=O)N[C@@H](CC(C)C)C(=O)N(C)CC(=O)N[C@@H](Cc2c[nH]c3ccccc23)C(=O)N[C@@H](CO)C(=O)N[C@@H](Cc2c[nH]c3ccccc23)C(=O)N1C
B4: Compound No. 43 (peptide)
peptide: {CH2CO}-F[NMeA]GPHL[Sar]WSW[NMeNle][NMeNle]RCG-NH2
modifications: thioether N-14
SMILES: CCCC[C@H]1C(=O)N(C)[C@@H](CCCC)C(=O)N[C@@H](CCCNC(=N)N)C(=O)N[C@H](C(=O)NCC(N)=O)CSCC(=O)N[C@@H](Cc2ccccc2)C(=O)N(C)[C@@H](C)C(=O)NCC(=O)N2CCC[C@H]2C(=O)N[C@@H](Cc2c[nH]cn2)C(=O)N[C@@H](CC(C)C)C(=O)N(C)CC(=O)N[C@@H](Cc2c[nH]c3ccccc23)C(=O)N[C@@H](CO)C(=O)N[C@@H](Cc2c[nH]c3ccccc23)C(=O)N1C
B5: Compound No. 21 (peptide)
peptide: FANPHLGWSWXARCG
HELM: PEPTIDE1{[O=C(C[*:3])[*:2]].F.[meA].N.P.H.L.[Sar].W.S.W.[CCCC[C@@H](C(=O)[*:2])N(C)[*:1]].[meA].R.C.G.[am]}$PEPTIDE1,PEPTIDE1,1:R3-15:R3$$$V2.0
SMILES: CCCC[C@H]1C(=O)N(C)[C@@H](C)C(=O)N[C@@H](CCCNC(=N)N)C(=O)N[C@H](C(=O)NCC(N)=O)CSCC(=O)N[C@@H](Cc2ccccc2)C(=O)N(C)[C@@H](C)C(=O)N[C@@H](CC(N)=O)C(=O)N2CCC[C@H]2C(=O)N[C@@H](Cc2c[nH]cn2)C(=O)N[C@@H](CC(C)C)C(=O)N(C)CC(=O)N[C@@H](Cc2c[nH]c3ccccc23)C(=O)N[C@@H](CO)C(=O)N[C@@H](Cc2c[nH]c3ccccc23)C(=O)N1C
B6: Compound No. 19 (peptide)
peptide: FANPHLGWSWAXRCG
HELM: PEPTIDE1{[O=C(C[*:3])[*:2]].F.[meA].N.P.H.L.[Sar].W.S.W.[meA].[CCCC[C@@H](C(=O)[*:2])N(C)[*:1]].R.C.G.[am]}$PEPTIDE1,PEPTIDE1,1:R3-15:R3$$$V2.0
SMILES: CCCC[C@H]1C(=O)N[C@@H](CCCNC(=N)N)C(=O)N[C@H](C(=O)NCC(N)=O)CSCC(=O)N[C@@H](Cc2ccccc2)C(=O)N(C)[C@@H](C)C(=O)N[C@@H](CC(N)=O)C(=O)N2CCC[C@H]2C(=O)N[C@@H](Cc2c[nH]cn2)C(=O)N[C@@H](CC(C)C)C(=O)N(C)CC(=O)N[C@@H](Cc2c[nH]c3ccccc23)C(=O)N[C@@H](CO)C(=O)N[C@@H](Cc2c[nH]c3ccccc23)C(=O)N(C)[C@@H](C)C(=O)N1C
B7: Compound No. 27 (peptide)
peptide: {CH2CO}-[1Nal][NMeA]NPHL[Sar]WSW[NMeNle][NMeNle]RCG-NH2
modifications: thioether N-14
SMILES: CCCC[C@H]1C(=O)N(C)[C@@H](CCCC)C(=O)N[C@@H](CCCNC(=N)N)C(=O)N[C@H](C(=O)NCC(N)=O)CSCC(=O)N[C@@H](Cc2cccc3ccccc23)C(=O)N(C)[C@@H](C)C(=O)N[C@@H](CC(N)=O)C(=O)N2CCC[C@H]2C(=O)N[C@@H](Cc2c[nH]cn2)C(=O)N[C@@H](CC(C)C)C(=O)N(C)CC(=O)N[C@@H](Cc2c[nH]c3ccccc23)C(=O)N[C@@H](CO)C(=O)N[C@@H](Cc2c[nH]c3ccccc23)C(=O)N1C
B8: Compound No. 35 (peptide)
peptide: {CH2CO}-[Phe(4-CF3)][NMeA]NPHL[Sar]WSW[NMeNle][NMeNle]RCG-NH2
modifications: thioether N-14
SMILES: CCCC[C@H]1C(=O)N(C)[C@@H](CCCC)C(=O)N[C@@H](CCCNC(=N)N)C(=O)N[C@H](C(=O)NCC(N)=O)CSCC(=O)N[C@@H](Cc2ccc(C(F)(F)F)cc2)C(=O)N(C)[C@@H](C)C(=O)N[C@@H](CC(N)=O)C(=O)N2CCC[C@H]2C(=O)N[C@@H](Cc2c[nH]cn2)C(=O)N[C@@H](CC(C)C)C(=O)N(C)CC(=O)N[C@@H](Cc2c[nH]c3ccccc23)C(=O)N[C@@H](CO)C(=O)N[C@@H](Cc2c[nH]c3ccccc23)C(=O)N1C
B9: Compound No. 26 (peptide)
peptide: {CH2CO}-[2Nal][NMeA]NPHL[Sar]WSW[NMeNle][NMeNle]RCG-NH2
modifications: thioether N-14
SMILES: CCCC[C@H]1C(=O)N(C)[C@@H](CCCC)C(=O)N[C@@H](CCCNC(=N)N)C(=O)N[C@H](C(=O)NCC(N)=O)CSCC(=O)N[C@@H](Cc2ccc3ccccc3c2)C(=O)N(C)[C@@H](C)C(=O)N[C@@H](CC(N)=O)C(=O)N2CCC[C@H]2C(=O)N[C@@H](Cc2c[nH]cn2)C(=O)N[C@@H](CC(C)C)C(=O)N(C)CC(=O)N[C@@H](Cc2c[nH]c3ccccc23)C(=O)N[C@@H](CO)C(=O)N[C@@H](Cc2c[nH]c3ccccc23)C(=O)N1C
B10: Compound No. 12 (peptide)
peptide: {CH2CO}-F[NMeA]NPHLGWSW[NMeNle][NMeNle]RCG-NH2
modifications: thioether N-14
SMILES: CCCC[C@H]1C(=O)N(C)[C@@H](CCCC)C(=O)N[C@@H](CCCNC(=N)N)C(=O)N[C@H](C(=O)NCC(N)=O)CSCC(=O)N[C@@H](Cc2ccccc2)C(=O)N(C)[C@@H](C)C(=O)N[C@@H](CC(N)=O)C(=O)N2CCC[C@H]2C(=O)N[C@@H](Cc2c[nH]cn2)C(=O)N[C@@H](CC(C)C)C(=O)NCC(=O)N[C@@H](Cc2c[nH]c3ccccc23)C(=O)N[C@@H](CO)C(=O)N[C@@H](Cc2c[nH]c3ccccc23)C(=O)N1C
B11: Compound No. 34 (peptide)
peptide: {CH2CO}-[Phe(4-Br)][NMeA]NPHL[Sar]WSW[NMeNle][NMeNle]RCG-NH2
modifications: thioether N-14
SMILES: CCCC[C@H]1C(=O)N(C)[C@@H](CCCC)C(=O)N[C@@H](CCCNC(=N)N)C(=O)N[C@H](C(=O)NCC(N)=O)CSCC(=O)N[C@@H](Cc2ccc(Br)cc2)C(=O)N(C)[C@@H](C)C(=O)N[C@@H](CC(N)=O)C(=O)N2CCC[C@H]2C(=O)N[C@@H](Cc2c[nH]cn2)C(=O)N[C@@H](CC(C)C)C(=O)N(C)CC(=O)N[C@@H](Cc2c[nH]c3ccccc23)C(=O)N[C@@H](CO)C(=O)N[C@@H](Cc2c[nH]c3ccccc23)C(=O)N1C
B12: Compound No. 37 (peptide)
peptide: {CH2CO}-[Phe(4-tBu)][NMeA]NPHL[Sar]WSW[NMeNle][NMeNle]RCG-NH2
modifications: thioether N-14
SMILES: CCCC[C@H]1C(=O)N(C)[C@@H](CCCC)C(=O)N[C@@H](CCCNC(=N)N)C(=O)N[C@H](C(=O)NCC(N)=O)CSCC(=O)N[C@@H](Cc2ccc(C(C)(C)C)cc2)C(=O)N(C)[C@@H](C)C(=O)N[C@@H](CC(N)=O)C(=O)N2CCC[C@H]2C(=O)N[C@@H](Cc2c[nH]cn2)C(=O)N[C@@H](CC(C)C)C(=O)N(C)CC(=O)N[C@@H](Cc2c[nH]c3ccccc23)C(=O)N[C@@H](CO)C(=O)N[C@@H](Cc2c[nH]c3ccccc23)C(=O)N1C
B13: Compound No. 38 (peptide)
peptide: {CH2CO}-[3Pal][NMeA]NPHL[Sar]WSW[NMeNle][NMeNle]RCG-NH2
modifications: thioether N-14
SMILES: CCCC[C@H]1C(=O)N(C)[C@@H](CCCC)C(=O)N[C@@H](CCCNC(=N)N)C(=O)N[C@H](C(=O)NCC(N)=O)CSCC(=O)N[C@@H](Cc2cccnc2)C(=O)N(C)[C@@H](C)C(=O)N[C@@H](CC(N)=O)C(=O)N2CCC[C@H]2C(=O)N[C@@H](Cc2c[nH]cn2)C(=O)N[C@@H](CC(C)C)C(=O)N(C)CC(=O)N[C@@H](Cc2c[nH]c3ccccc23)C(=O)N[C@@H](CO)C(=O)N[C@@H](Cc2c[nH]c3ccccc23)C(=O)N1C

What follows are binders tested against T1, hPDL1(19-239)-TVMV-His (human, UniProt Q9NZQ7 19-239) (assay: HTRF competition, PD-1-Ig binding to PD-L1-His).
T1 construct: The text says amino acids 18-239, the construct name says 19-239; Expressed in HEK293T cells; Used at 10 nM final in the HTRF assay; also called PD-L1-His; PD-L1-TVMV-His
Experimental: All binding studies were performed in an HTRF assay buffer consisting of dPBS supplemented with 0.1% (w/v) bovine serum albumin and 0.05% (v/v) Tween-20. […] PD-L1 fusion proteins from either human, cynomologous macaques, or mouse were used. HTRF detection was achieved using europium crypate-labeled anti-Ig monoclonal antibody (1 nM final) and allophycocyanin (APC) labeled anti-His monoclonal antibody (20 nM final). Antibodies were diluted in HTRF detection buffer and 5 μl was dispensed on top of binding reaction. The reaction was allowed to equilibrate for 30 minutes and signal (665 nm/620 nm ratio) was obtained using an EnVision fluorometer. […]
HTRF Experiments were performed essentially as outlined supra. Variant macrocyclic peptides were created as outlined herein.

T1 sequence (Q9NZQ7 other isoform, or with tags, fused parts or gaps limits assumed): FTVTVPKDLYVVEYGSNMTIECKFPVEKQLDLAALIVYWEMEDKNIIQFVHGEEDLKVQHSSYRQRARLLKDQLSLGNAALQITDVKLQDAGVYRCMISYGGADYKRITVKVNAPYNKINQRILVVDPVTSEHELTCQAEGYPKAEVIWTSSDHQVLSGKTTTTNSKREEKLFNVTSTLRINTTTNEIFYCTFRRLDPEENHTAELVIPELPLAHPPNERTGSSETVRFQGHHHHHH

IC50 [nM]	Binder
9	B1
117	B2
921	B3
554	B4
21	B5
33	B6
20	B7
56	B8
15	B9
22	B10
4	B11
1270	B12
46	B13
